In paper PMC13483453, “Ewing sarcoma breakpoint region 1 (EWSR1) protein binds to nonstructural protein 2 and non-coding regions of chikungunya virus genome to inhibit virus replication”:

What was measured:
[1] = molecular target: Recombinant histidine-tagged EWSR1 (Ewing sarcoma breakpoint region 1 protein) (UniProt Q01844); assay: BLI
EWSR1 [2] = molecular target: T1, EWSR1 (UniProt Q01844 1-656); assay: EMSA; polyIC; conditions: protein: recombinant; tags: N-terminal 6xHis (pET28a)
CHIKV nsP2 [3] = molecular target: T2, CHIKV nsP2 (Chikungunya virus, UniProt Q8JUX6 536-1333); assay: EMSA; polyIC; conditions: protein: recombinant; tags: His6-SUMO removed
EWSR1 [4] = molecular target: T1, EWSR1; assay: BLI; 2:1 binding model; conditions: protein: recombinant; tags: N-terminal 6xHis (pET28a)
CHIKV nsP2 [5] = molecular target: T2, CHIKV nsP2; assay: BLI; 2:1 binding model; conditions: protein: recombinant; tags: His6-SUMO removed
EWSR1 [6] = molecular target: T1, EWSR1; assay: EMSA; conditions: protein: recombinant; tags: N-terminal 6xHis (pET28a)
CHIKV nsP2 [7] = molecular target: T2, CHIKV nsP2; assay: EMSA; conditions: protein: recombinant; tags: His6-SUMO removed
CHIKV nsP2 [8] = molecular target: T2, CHIKV nsP2; assay: EMSA; polyIC; figure description says weak; conditions: protein: recombinant; tags: His6-SUMO removed

T1 sequence (Q01844 whole entry): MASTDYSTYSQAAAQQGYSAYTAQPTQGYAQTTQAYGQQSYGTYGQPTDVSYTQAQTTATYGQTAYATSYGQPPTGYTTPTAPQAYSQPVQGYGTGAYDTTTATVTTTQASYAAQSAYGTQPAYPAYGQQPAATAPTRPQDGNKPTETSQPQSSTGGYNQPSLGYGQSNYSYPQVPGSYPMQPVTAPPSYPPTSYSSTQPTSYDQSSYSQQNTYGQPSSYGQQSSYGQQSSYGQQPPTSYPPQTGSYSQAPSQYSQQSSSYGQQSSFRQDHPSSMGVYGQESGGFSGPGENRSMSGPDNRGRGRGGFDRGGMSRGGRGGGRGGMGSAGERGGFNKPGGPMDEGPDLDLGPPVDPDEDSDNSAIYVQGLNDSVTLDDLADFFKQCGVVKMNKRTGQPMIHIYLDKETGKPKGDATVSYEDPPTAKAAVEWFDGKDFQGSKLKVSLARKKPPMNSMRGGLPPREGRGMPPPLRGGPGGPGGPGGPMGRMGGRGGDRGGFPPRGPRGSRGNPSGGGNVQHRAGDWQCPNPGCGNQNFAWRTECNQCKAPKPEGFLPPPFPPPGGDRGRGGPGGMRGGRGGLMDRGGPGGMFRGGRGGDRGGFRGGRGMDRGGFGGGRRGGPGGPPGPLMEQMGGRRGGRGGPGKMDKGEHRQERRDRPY
Recombinant histidine-tagged EWSR1 (Ewing sarcoma breakpoint region 1 protein), sequence (Q01844 whole entry): as above

“Full-length CHIKV nsP2 protein (recombinant) (from UniProt Q8JUX6 536-1333) (enzyme)” gave a Kd [1] of 0.716 µM.

B1: 14-mer of 3NCR48 (ssRNA)
RNA: GUUUUUAAUAUUUC
B1: binds (EWSR1 [2]); binds (CHIKV nsP2 [3]).

B2: 3NCR48 (ssRNA)
RNA: UCCGAACCCACAGGGACGUAGGAGAUGUUAUUUUGUUUUUAAUAUUUC
Work on B2 yielded a Kd (EWSR1 [4]) of 0.0914 ± 0.00037 µM and a Kd (CHIKV nsP2 [5]) of 0.0929 ± 0.0016 µM.

B3: Random48 (ssRNA)
RNA: GUGAUUCAGAGGUUUUUGACUUUAGUAAAUCGCCCAUCCUUUGAUAGA
B3: no binding (EWSR1 [6]); binds (CHIKV nsP2 [7]).

B4: 5NCR-RC50 (ssRNA)
RNA: UCUCUUGCUUUGCAGAGUAGAGCAGUAAGAAACUGGUAGGCUACGUGUGU
In the case of B4, the binding result (CHIKV nsP2 [8]) is reported as “binds” and the Kd (EWSR1 [4]) is reported as 0.0802 ± 0.00039 µM.
